This note sets out measurements from patent publication US20230399393A1, “METHODS TO EXTEND HEALTH-SPAN AND TREAT AGE-RELATED DISEASES” (National University of Singapore, priority 2020, published 2023).

In assay [1] the test system is C57Bl/6J mice. Description: Analysis of markers of cellular senescence in tissues. It counts as in vivo, mouse. The following applies: at 110 weeks; p16INK4a, p21CIP1, p53, SA-ß-gal; vs IgG control antibody. The source says: (§1) C57Bl/6J mice are randomised to receive either X203 or IgG control antibody at a dose of 40m/kg via IP injection every 3 weeks from age 55 weeks to age 110 weeks.
At 110 weeks, tissues are harvested from the mice cells of the relevant tissues and analysed for gene and/or protein expression of p16^INK4a, p21^CIP1 and p53, and for SA-ß-gal activity.

For assay [2], the system named is Primary human cardiac fibroblasts. Description: IL11 or TGFβ1 stimulated fibroblasts with X203, X209 or IgG, western blot. It counts as cell-based. The following applies: IL11/TGFβ1 10 ng/ml, 24 hours; antibody 2 μg/ml. As to the method:
FIG. 19. Western blot image showing the levels of p-ERK, ERK, p-P90RSK, P90RSK, p-LKB1, LKB1, p-AMPK, AMPK, p-mTOR, mTOR, p-p70S6K, p70S6K, p-S6RP, S6RP, SMA, and GAPDH in primary human cardiac fibroblasts that are unstimulated (BL) or stimulated for 24 hours with either IL11 or TGFβ1 in the presence of X203, X209, or IgG (11E10) isotype control. IL11/TGFβ1 (10 ng/ml), IgG/X203/X209 (2 μg/ml).
Primary human cardiac fibroblasts were stimulated with IL11 or TGFβ1, or unstimulated (BL).
In general terms: In western blotting, separated proteins are transferred to a membrane and probed.

Assay [3] relates to C57Bl/6J mice. Description: Body-composition assessment via echo MRI. It is filed as in vivo, mouse. The conditions noted are these: baseline age 55 weeks vs 108-109 weeks, vs IgG control. Here is the method:
From age 55 weeks (human equivalent of ˜45 years old (i.e. middle age)) to age 110 weeks (human equivalent of ˜75 years old), mice were administered with 40 mg/kg of either X203 or isotype-matched control IgG via intra-peritoneal injection every 3 weeks.
Mice also underwent body-composition assessment via echo MRI both at baseline (age 55 weeks) and at 108-109 weeks. This enabled calculation of the change in body fat mass and lean (muscle) mass in the X203 and IgG control treatment groups. Gastrocnemius and soleus muscles were also harvested from the mice at age 110 weeks and their weights were recorded. Data were analysed by 2-way ANOVA.
End-point total body fat and lean mass measurements were performed 2 days prior to sacrifice by EchoMRI analysis using 4in1 Body Composition Analyzer for Live Small Animal.

Assay [4] relates to C57Bl/6J mice. Description: Analysis of geropathological lesions in tissue sections. It counts as in vivo, mouse. The following applies: at 110 weeks; heart, lung, liver, spleen, kidney, skeletal muscle; vs IgG control antibody. Here is the method: as §1
At 110 weeks, mice are euthanized, sections are prepared from heart, lung, liver, spleen, kidney and skeletal muscle tissues, subjected to hematoxylin and eosin or Masson's trichrome staining and analysed by light microscopy. Tissue sections are evaluated for ageing-associated lesions as described in Snider et al., Geroscience (2019) 40: 97-103 and Snyder et al., Geroscience (2019) 41: 455-465 (both hereby incorporated by reference in their entirety). Analysis is performed by a veterinary pathologist blinded to treatment group.

For the next assay, the system named is AML12. Description: Senescence reversal experiment, qPCR at day 10. It counts as cell-based, mouse. The conditions noted are these: 2 μg/ml for 72 hours after 7 days senescence induction; vs IgG. Here is the method: FIG. 25. (25A) Schematic of senescence reversal experiment for data shown in B-D. Senescent AML12 were generated for 7 days as described above. IgG/X203/X209 (2 μg/ml) was added into the cultures at the end of senescence induction period for 72 hours; cells were harvested at day 10 for RNA extraction and subsequent qPCR experiments. Relative mRNA expression of (25B) Cdkn1a (p21), (25C) Il1β, and (25D) Il11.
Briefly, senescent AML12 were generated for 7 days as described above, but IgG/X203/X209 (2 μg/ml) was added into the cultures at the end of senescence induction period for 72 hours.
Senescent AML12 were generated by treating the cells with a sub-lethal concentration of H2O2 (0.75 mM) for 1 hour, followed by 23 hours recovery per day, for 7 days as described (Tripathi, Yen, and Singh 2020, STAR Protocols 1 (2): 100064). For prevention study, AML12 cells were treated with 2 ug/ml of either IgG or X209 during the recovery period of the senescence induction stage (from day 1 to day 7); cells were harvested for total RNA collection at day 10. For reversal study, senescence was first induced for seven days followed by 2 ug/ml of IgG, X203, or X209 treatment for 3 days; cells were harvested for total RNA collection at day 10.
Total RNA was extracted from AML12 or snap-frozen tissues using Trizol (Invitrogen) and RNeasy Mini Kit (Qiagen). […] using iScript cDNA Synthesis Kit (Biorad). Gene expression analysis was performed on duplicate samples with either TaqMan (Applied Biosystems) for Il11 (Mm00434162) or fast SYBR green (Qiagen) technology using StepOnePlus™ (Applied Biosystem) for Ccl2, Ccl5, Gapdh, Il1β, Il6, Il8, p16, p21, Tnfα, over 40 cycles. Expression data were normalized to GAPDH mRNA expression and fold change was calculated using 2^−ΔΔct method.
On the technique in general: Real-time PCR tracks product formation cycle by cycle.

The test system of a further assay is AML12 cells. Description: In vitro model of senescence induction, qRT-PCR at day 7. It is filed as cell-based, mouse. The conditions noted are these: 2 ug/ml from day 2, H2O2 0.75 mM, vs isotype-matched control IgG. As to the method: Senescent hepatic mouse cells were generated from cells of the mouse hepatocyte cell line AML12 as described in Tripathi et al., Star Protocols (2020) 1:100064 (hereby incorporated by reference in its entirety).
Briefly, AML12 cells were grown to 50% confluency and senescence was induced by treating the cells with a sub-lethal concentration of H2O2 (0.75 mM) for 1 h, followed by 23 h recovery per day, for a total of 7 days (as described in Tripathi et al., Star Protocols (2020) 1:100064). From day 2 onwards, 2 ug/ml of X209/X203 or isotype-matched control IgG was added to the cultures during the 23h recovery period.
Total RNA was isolated at day 7, and levels of p21 (Cdkn1a), […], Il11 and Tgfb gene expression were evaluated by qRT-PCR. Briefly, total RNA was extracted from cell lysates using Trizol (Invitrogen) followed by RNeasy column (Qiagen) purification. cDNAs were synthesized with iScript™ cDNA synthesis kit (Bio-Rad) according to manufacturer's instructions. Gene expression analysis was performed with either TaqMan (Applied Biosystems) or fast SYBR green (Qiagen) using the StepOnePlus Real-Time PCT System (Applied Biosystems) over 40 cycles. Expression data for p21 (Cdkn1a), Il1b, Il11 and Tgfb were normalised to Gapdh expression, and fold change was calculated using the 2^−ΔΔCt method.

B1: X203: mouse anti-mouse IL-11 IgG antagonist antibody; VH SEQ ID NO:22, VL SEQ ID NO:23 (antibody, V domains shown)
VH: EVQLQQSGPELVKPGASVKIPCKASGYTFTDYNMDWVKQSHGKSLEWIGDINPHNGGPIYNQKFTGKATLTVDKSSSTAYMELRSLTSEDTAVYYCARGELGHWYFDVWGTGTTVTVSS
VL: DIVLTQSPASLAVSLGQRATISCRASKSVSTSGYSYIHWYQQKPGQPPKLLIYLASNLDSGVPARFSGSGSGTDFTLNIHPVEEEDAATYYCQHSRDLPPTFGGGTKLEIK
Regarding B1, the “levels of markers of cellular senescence” value in the assay with C57Bl/6J mice [1] was “lower”. The “level of phosphorylation of markers ERK, p90RSK, LKB1, mTOR, p70S6K and S6RP” value in assay [2] is on record as “significantly reduce”. In the assay with C57Bl/6J mice [3], the “fat mass gained (change in body fat mass)” value was “significantly less” and the lean mass entry is “significantly greater”. Moreover, the geropathology lesions result in the assay with C57Bl/6J mice [4] is reported as “fewer, smaller and/or less developed”. Also, in the assay with AML12, the “inflammation marker IL-1 b” value is reported as “significantly reduce”, the “inflammation marker IL-11” value was “significantly reduce” and the “senescence marker p21” value is “significantly reduce”. Further, in the assay with AML12 cells, the “gene expression of Il11” value is “trended towards a reduced level” and the “gene expression of Tgfb” value is “significantly reduce”.
